Experimental data: US20220168438A1 (Daiichi Sankyo, published 2022)

T1: human CLDN6 (human, UniProt P56747 1-220)
T1 construct: Four-transmembrane protein; It was expressed on 293T cells from human CLDN6/pCMV-Entry (OriGene) and on CHO-K1 cells by cDNA transfection; it was endogenous in the NTERA-2 lysate used for immunoprecipitation; also called claudin-6; human claudin-6
T1 sequence: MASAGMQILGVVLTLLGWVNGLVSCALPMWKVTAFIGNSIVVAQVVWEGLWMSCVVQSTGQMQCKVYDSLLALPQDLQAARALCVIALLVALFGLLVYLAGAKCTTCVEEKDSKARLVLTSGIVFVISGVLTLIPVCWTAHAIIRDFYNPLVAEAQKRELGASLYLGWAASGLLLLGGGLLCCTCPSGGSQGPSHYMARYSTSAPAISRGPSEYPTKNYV

T2: human CLDN9 (human, UniProt O95484 1-217)
T2 construct: Expressed on 293T cells from human CLDN9/pCMV6-Entry (OriGene); Transfection was confirmed with an anti-FLAG antibody
T2 sequence: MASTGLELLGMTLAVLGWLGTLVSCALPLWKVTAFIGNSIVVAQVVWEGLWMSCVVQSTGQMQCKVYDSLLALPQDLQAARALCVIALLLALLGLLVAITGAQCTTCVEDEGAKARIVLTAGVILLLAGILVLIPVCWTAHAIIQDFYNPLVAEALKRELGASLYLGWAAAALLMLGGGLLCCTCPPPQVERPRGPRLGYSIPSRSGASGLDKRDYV

T3: human CLDN4 (human, UniProt O14493 1-209)
T3 construct: whole, on cells
T3 sequence (looked up): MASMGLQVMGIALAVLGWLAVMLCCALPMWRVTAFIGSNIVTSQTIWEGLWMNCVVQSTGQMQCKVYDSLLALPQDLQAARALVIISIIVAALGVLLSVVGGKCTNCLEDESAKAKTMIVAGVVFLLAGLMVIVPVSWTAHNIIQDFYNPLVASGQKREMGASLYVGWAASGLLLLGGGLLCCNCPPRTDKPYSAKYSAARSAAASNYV

T4: human CLDN3 (human, UniProt O15551 1-220)
T4 construct: whole, on cells
T4 sequence (looked up): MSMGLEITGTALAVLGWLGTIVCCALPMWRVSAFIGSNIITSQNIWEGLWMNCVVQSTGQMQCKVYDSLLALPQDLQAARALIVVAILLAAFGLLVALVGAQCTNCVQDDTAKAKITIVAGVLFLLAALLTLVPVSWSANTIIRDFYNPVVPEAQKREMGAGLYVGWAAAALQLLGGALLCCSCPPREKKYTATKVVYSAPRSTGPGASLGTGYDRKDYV


How the values were obtained:
[1] = biological target: T1, human CLDN6; assay: flow cytometry on transiently transfected 293T cells, 0.8-100 nM
Method: (§1) The binding activity of the humanized anti-CLDN6 antibody produced in Example 10 to human CLDN6 and its family molecules, CLDN3, CLDN4, and CLDN9, was evaluated by using a flow cytometry method. Used were 293T cells transiently transfected in the same manner as in Example 7-1. To cells into which a human CLDN6 or human CLDN9 gene had been transferred, the humanized anti-CLDN6 antibody H1L1, H2L2, H1L3, H2L4, or H3L3, or a human IgG1 control antibody (Calbiochem) was added and suspended to a final concentration of 100 nM, 20 nM, 4 nM, or 0.8 nM, and the resultant was left to stand at 4° C. for 30 minutes. To cells into which a human CLDN3 or human CLDN4 gene, or an empty vector had been transferred, the humanized anti-CLDN6 antibody H1L1, H2L2, H1L3, H2L4, or H3L3 was added and suspended to a final concentration of 100 nM, and the resultant was left to stand at 4° C. for 30 minutes. The cells were washed with Dulbecco's phosphate buffered saline (Sigma-Aldrich Co. LLC) containing 5% fetal bovine serum (Hyclone) (hereinafter, referred to as 5% FBS-containing PBS), and FITC AffiniPureF (ab′)2 Fragment Goat Anti-Human IgG (H+L) (Jackson ImmunoResearch Laboratories Inc.) 150-fold diluted with 5% FBS-containing PBS was then added thereto, and the cells were suspended and left to stand at 4° C. for 30 minutes. After washing with 5% FBS-containing PBS, detection was carried out by using a flow cytometer (FC500; Beckman Coulter, Inc.). Data analysis was carried out by using FlowJo (Tree Star, Inc.), and mean fluorescence intensity (MFI) of FITC, which indicates the amount of the binding antibody, was calculated. […] In each graph in FIG. 13, the abscissa represents antibody concentrations and the ordinate represents MFI.

[2] = biological target: T2, human CLDN9; assay: as above
Method: as §1

[3] = biological target: T3, human CLDN4; assay: flow cytometry on transiently transfected 293T cells
Method: (§2) Binding activity of the mouse anti-CLDN6 antibodies produced in Example 6 to human CLDN6 and its family molecules, CLDN3, CLDN4, and CLDN9, was evaluated by using a flow cytometry method. Human CLDN3/pCMV6-Entry, human CLDN4/pCMV6-Entry, human CLDN6/pCMV-Entry, human CLDN9/pCMV6-Entry, or pCMV6-Entry purchased from OriGene Technologies, Inc. was transiently transferred into 293T cells (Thermo Fisher Scientific, HCL4517) by using Lipofectamine 2000 (Thermo Fisher Scientific), and the cells were cultured under conditions of 37° C. and 5% CO₂ overnight, and then a cell suspension was prepared. The transfected 293T cell suspension was centrifuged to remove the supernatant, and a mouse anti-CLDN6 antibody (clone number: B1 or C7) or a mouse IgG1 control antibody (R&D Systems, Inc.) was then added and suspended to a final concentration of 30 μg/mL, 10 μg/mL, 3.3 μg/mL, or 1.1 μg/mL, and the resultant was left to stand at 4° C. for 1 hour. The cells were washed twice with Dulbecco's phosphate buffered saline (Sigma-Aldrich Co. LLC) containing 5% fetal bovine serum (Hyclone) (hereinafter, referred to as 5% FBS-containing PBS), and FLUORESCEIN-CONJUGATED GOAT IGG FRACTION TO MOUSE IGG (WHOLE MOLECULE) (MP Biomedicals, Inc.) 500-fold diluted with 5% FBS-containing PBS was then added thereto, and the cells were suspended and left to stand at 4° C. for 1 hour. After washing twice with 5% FBS-containing PBS, detection was carried out by using a flow cytometer (FC500; Beckman Coulter, Inc.). Data analysis was carried out by using FlowJo (Tree Star, Inc.). To confirm each transfection, the cells were permeabilized with 0.25% Tween 20-containing PBS, and then a mouse anti-FLAG antibody (Sigma-Aldrich Co. LLC) was used. […] In each graph in FIG. 11, the ordinate represents FITC fluorescence intensity indicating the amount of the binding antibody and the abscissa represents antibody concentrations.
(§3) The binding activity of the humanized anti-CLDN6 antibody produced in Example 10 to human CLDN6 and its family molecules, CLDN3, CLDN4, and CLDN9, was evaluated by using a flow cytometry method.

[4] = biological target: T4, human CLDN3; assay: as above
Method: as §2, §3

Binder | binding result [1] | binding result [2] | binding result [3] | binding result [4]
humanized anti-CLDN6 antibody H3L3 (antibody, human IgG1, kappa, L234A L235A, V domains shown, Human IgG1 LALA heavy chain and human kappa light chain; also called H3L3 antibody; hH3 + hL3) VH: EVQLVQSGAEVKKPGASVKVSCKTSGYTFTEYTMHWVRQAPGQGLEWMGGVNPNSGDTSYAQKFQGRVTLTVDKSTSTAYMELSSLRSEDTAVYYCARPGGYDVGYYAMDYWGQGTLVTVSS VL: DIQMTQSPSSLSASVGDRVTITCRASQDINNYLNWYQQKPGGAVKLLIYFTSRLHSGVPSRFSGSGSGTDYTLTISSLQPEDFATYYCQQGYPLPWTFGGGTKVEIKR | binds | binds | no binding (tested: 100 nM) | no binding (tested: 100 nM)
humanized anti-CLDN6 antibody H2L2 (antibody, human IgG1, kappa, L234A L235A, V domains shown, Human IgG1 LALA heavy chain and human kappa light chain; also called H2L2 antibody; hH2 + hL2) VH: EVQLVQSGAEVKKPGASVKVSCKTSGYTFTEYTMHWVRQAPGKSLEWMGGVNPNSGDTSYAQKFQGRVTITADTSTSTAYMELSSLRSEDTAVYYCARPGGYDVGYYAMDYWGQGTLVTVSS VL: DIQMTQSPSSLSASVGDRVTITCRASQDINNYLNWYQQKPGKAVKLLIYFTSRLHSGVPSRFSGSGSGTHYTLTISSLQPEDFATYYCQQGYPLPWTFGQGTKVEIKR | binds | binds | no binding (tested: 100 nM) | no binding (tested: 100 nM)

Results, then the binder that gave them:

binding result [1] | binding result [2] | binding result [3] | binding result [4] | Binder
binds | binds | no binding (tested: 100 nM) | no binding (tested: 100 nM) | humanized anti-CLDN6 antibody H2L4 (antibody, human IgG1, kappa, L234A L235A, V domains shown, Human IgG1 LALA heavy chain and human kappa light chain; also called H2L4 antibody; hH2 + hL4) VH: EVQLVQSGAEVKKPGASVKVSCKTSGYTFTEYTMHWVRQAPGKSLEWMGGVNPNSGDTSYAQKFQGRVTITADTSTSTAYMELSSLRSEDTAVYYCARPGGYDVGYYAMDYWGQGTLVTVSS VL: DIQMTQSPSSLSASVGDRVTITCRASQDINNYLNWYQQKPGGAVKLLIYFTSRLHSGVPSRFSGSGSGTDYTLTISSLQPEDFATYYCQQGNTLPWTFGGGTKVEIKR
binds | binds | no binding (tested: 100 nM) | no binding (tested: 100 nM) | humanized anti-CLDN6 antibody H1L1 (antibody, human IgG1, kappa, L234A L235A, V domains shown, Human IgG1 LALA heavy chain and human kappa light chain; also called H1L1 antibody; hH1 + hL1) VH: QVQLVQSGAEVKKPGASVKVSCKASGYTFTEYTMHWVRQAPGQGLEWMGGVNPNSGDTSYAQKFQGRVTITADTSTSTAYMELSSLRSEDTAVYYCARPGGYDVGYYAMDYWGQGTLVTVSS VL: DIQMTQSPSSLSASVGDRVTITCRASQDINNYLNWYQQKPGKAPKLLIYFTSRLHSGVPSRFSGSGSGTDYTLTISSLQPEDFATYYCQQGYPLPWTFGQGTKVEIKR
